The text below walks through data of article PMC7641504 (International journal of mass spectrometry, 2020).

This series deals with the molecule itself. In words: native MS.

B1: rabbit muscle pyruvate kinase (enzyme)
chain: not shown
modifications: acetylation of the N-terminal serine (after removal of the initiator methionine)
Consider B1, for which the stoichiometry N (in general, a count of units in the complex or per binding partner) was 4.

B2: yeast alcohol dehydrogenase (enzyme, UniProt P00330 1-348, looked up)
chain: MSIPETQKGVIFYESHGKLEYKDIPVPKPKANELLINVKYSGVCHTDLHAWHGDWPLPVKLPLVGGHEGAGVVVGMGENVKGWKIGDYAGIKWLNGSCMACEYCELGNESNCPHADLSGYTHDGSFQQYATADAVQAAHIPQGTDLAQVAPILCAGITVYKALKSANLMAGHWVAISGAAGGLGSLAVQYAKAMGYRVLGIDGGEGKEELFRSIGGEVFIDFTKEKDIVGAVLKATDGGAHGVINVSVSEAAIEASTRYVRANGTTVLVGMPAGAKCCSDVFNQVVKSISIVGSYVGNRADTREALDFFARGLVKSPIKVVGLSTLPEIYEKMEKGQIVGRYVVDTSK
With B2, the “stoichiometry N” value is 4.
